Numbered stars: 1 amine (or outer) side, 2 acyl side, 3 side chain; on linkers, the order of the positions; unused ones are H or OH. Bridge positions count the residues as written; N and C are the ends. * marks the point of attachment. C20 diacid = O=C(O)CCCCCCCCCCCCCCCCCCC(=O)*; γGlu = O=C(O)[C@H](CCC(=O)[*:2])N[*:1]; AEEA = NCCOCCOCC(=O)O
T1: human calcitonin receptor (human, UniProt P30988 25-474)
T1 sequence (looked up): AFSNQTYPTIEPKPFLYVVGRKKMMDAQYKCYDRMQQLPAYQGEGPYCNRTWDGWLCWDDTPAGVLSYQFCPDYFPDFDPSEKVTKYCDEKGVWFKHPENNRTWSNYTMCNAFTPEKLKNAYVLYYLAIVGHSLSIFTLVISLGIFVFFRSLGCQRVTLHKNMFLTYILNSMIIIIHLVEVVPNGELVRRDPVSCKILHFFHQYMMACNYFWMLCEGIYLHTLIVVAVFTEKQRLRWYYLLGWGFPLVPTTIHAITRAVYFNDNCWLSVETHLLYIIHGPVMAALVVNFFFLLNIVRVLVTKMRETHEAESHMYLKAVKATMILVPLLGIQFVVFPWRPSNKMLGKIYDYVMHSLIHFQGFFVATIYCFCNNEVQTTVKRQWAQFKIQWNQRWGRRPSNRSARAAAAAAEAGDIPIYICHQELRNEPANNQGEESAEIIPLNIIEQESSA

B1: N^α1-[2-[2-[2-[[2-[2-[2-[[(4S)-4-carboxy-4-(19-carboxynonadecanoylamino)butanoyl]amino]ethoxy]ethoxy]acetyl]amino]ethoxy]ethoxy]acetyl]-[Glu14,Arg17,Pro21,Pro27 … (peptide)
peptide: {C20 diacid-γGlu-AEEA-AEEA}-KCNTATCATQRLAEFLRHSSPNFGAIPSSTNVGSNTP-NH2
modifications: disulfide 2-7
SMILES: CC[C@H](C)[C@H](NC(=O)[C@H](C)NC(=O)CNC(=O)[C@H](Cc1ccccc1)NC(=O)[C@H](CC(N)=O)NC(=O)[C@@H]1CCCN1C(=O)[C@H](CO)NC(=O)[C@H](CO)NC(=O)[C@H](Cc1c[nH]cn1)NC(=O)[C@H](CCCNC(=N)N)NC(=O)[C@H](CC(C)C)NC(=O)[C@H](Cc1ccccc1)NC(=O)[C@H](CCC(=O)O)NC(=O)[C@H](C)NC(=O)[C@H](CC(C)C)NC(=O)[C@H](CCCNC(=N)N)NC(=O)[C@H](CCC(N)=O)NC(=O)[C@@H](NC(=O)[C@H](C)NC(=O)[C@@H]1CSSC[C@H](NC(=O)[C@H](CCCCN)NC(=O)COCCOCCNC(=O)COCCOCCNC(=O)CC[C@H](NC(=O)CCCCCCCCCCCCCCCCCCC(=O)O)C(=O)O)C(=O)N[C@@H](CC(N)=O)C(=O)N[C@@H]([C@@H](C)O)C(=O)N[C@@H](C)C(=O)N[C@@H]([C@@H](C)O)C(=O)N1)[C@@H](C)O)C(=O)N1CCC[C@H]1C(=O)N[C@@H](CO)C(=O)N[C@@H](CO)C(=O)N[C@H](C(=O)N[C@@H](CC(N)=O)C(=O)N[C@H](C(=O)NCC(=O)N[C@@H](CO)C(=O)N[C@@H](CC(N)=O)C(=O)N[C@H](C(=O)N1CCC[C@H]1C(N)=O)[C@@H](C)O)C(C)C)[C@@H](C)O
notes: Synthetic acylated analogue of human amylin; also called compound 20
B2: N^α1-[(4S)-4-carboxy-4-(19-carboxynonadecanoylamino)butanoyl]-[Glu14,Arg17,Pro21,Pro27,Asp35,Pro37]-h-amylin (peptide)
peptide: {C20 diacid-γGlu}-KCNTATCATQRLAEFLRHSSPNFGAIPSSTNVGSDTP-NH2
modifications: disulfide 2-7
SMILES: CC[C@H](C)[C@H](NC(=O)[C@H](C)NC(=O)CNC(=O)[C@H](Cc1ccccc1)NC(=O)[C@H](CC(N)=O)NC(=O)[C@@H]1CCCN1C(=O)[C@H](CO)NC(=O)[C@H](CO)NC(=O)[C@H](Cc1c[nH]cn1)NC(=O)[C@H](CCCNC(=N)N)NC(=O)[C@H](CC(C)C)NC(=O)[C@H](Cc1ccccc1)NC(=O)[C@H](CCC(=O)O)NC(=O)[C@H](C)NC(=O)[C@H](CC(C)C)NC(=O)[C@H](CCCNC(=N)N)NC(=O)[C@H](CCC(N)=O)NC(=O)[C@@H](NC(=O)[C@H](C)NC(=O)[C@@H]1CSSC[C@H](NC(=O)[C@H](CCCCN)NC(=O)CC[C@H](NC(=O)CCCCCCCCCCCCCCCCCCC(=O)O)C(=O)O)C(=O)N[C@@H](CC(N)=O)C(=O)N[C@@H]([C@@H](C)O)C(=O)N[C@@H](C)C(=O)N[C@@H]([C@@H](C)O)C(=O)N1)[C@@H](C)O)C(=O)N1CCC[C@H]1C(=O)N[C@@H](CO)C(=O)N[C@@H](CO)C(=O)N[C@H](C(=O)N[C@@H](CC(N)=O)C(=O)N[C@H](C(=O)NCC(=O)N[C@@H](CO)C(=O)N[C@@H](CC(=O)O)C(=O)N[C@H](C(=O)N1CCC[C@H]1C(N)=O)[C@@H](C)O)C(C)C)[C@@H](C)O
notes: Synthetic acylated analogue of human amylin; also called compound 11
B3: N^α1-[(4S)-4-carboxy-4-(19-carboxynonadecanoylamino)butanoyl]-[Glu14,Arg17,Pro21,Pro26,Pro37]-h-amylin (peptide)
peptide: {C20 diacid-γGlu}-KCNTATCATQRLAEFLRHSSPNFGAPLSSTNVGSNTP-NH2
modifications: disulfide 2-7
SMILES: CC(C)C[C@H](NC(=O)[C@H](CCCNC(=N)N)NC(=O)[C@H](CCC(N)=O)NC(=O)[C@@H](NC(=O)[C@H](C)NC(=O)[C@@H]1CSSC[C@H](NC(=O)[C@H](CCCCN)NC(=O)CC[C@H](NC(=O)CCCCCCCCCCCCCCCCCCC(=O)O)C(=O)O)C(=O)N[C@@H](CC(N)=O)C(=O)N[C@@H]([C@@H](C)O)C(=O)N[C@@H](C)C(=O)N[C@@H]([C@@H](C)O)C(=O)N1)[C@@H](C)O)C(=O)N[C@@H](C)C(=O)N[C@@H](CCC(=O)O)C(=O)N[C@@H](Cc1ccccc1)C(=O)N[C@@H](CC(C)C)C(=O)N[C@@H](CCCNC(=N)N)C(=O)N[C@@H](Cc1c[nH]cn1)C(=O)N[C@@H](CO)C(=O)N[C@@H](CO)C(=O)N1CCC[C@H]1C(=O)N[C@@H](CC(N)=O)C(=O)N[C@@H](Cc1ccccc1)C(=O)NCC(=O)N[C@@H](C)C(=O)N1CCC[C@H]1C(=O)N[C@@H](CC(C)C)C(=O)N[C@@H](CO)C(=O)N[C@@H](CO)C(=O)N[C@H](C(=O)N[C@@H](CC(N)=O)C(=O)N[C@H](C(=O)NCC(=O)N[C@@H](CO)C(=O)N[C@@H](CC(N)=O)C(=O)N[C@H](C(=O)N1CCC[C@H]1C(N)=O)[C@@H](C)O)C(C)C)[C@@H](C)O
notes: Synthetic acylated analogue of human amylin; also called compound 5
B4: N^α1-[(4S)-4-carboxy-4-(19-carboxynonadecanoylamino)butanoyl]-[Glu14,Arg17,Pro21,Pro27,Pro37]-h-amylin (peptide)
peptide: {C20 diacid-γGlu}-KCNTATCATQRLAEFLRHSSPNFGAIPSSTNVGSNTP-NH2
modifications: disulfide 2-7
SMILES: CC[C@H](C)[C@H](NC(=O)[C@H](C)NC(=O)CNC(=O)[C@H](Cc1ccccc1)NC(=O)[C@H](CC(N)=O)NC(=O)[C@@H]1CCCN1C(=O)[C@H](CO)NC(=O)[C@H](CO)NC(=O)[C@H](Cc1c[nH]cn1)NC(=O)[C@H](CCCNC(=N)N)NC(=O)[C@H](CC(C)C)NC(=O)[C@H](Cc1ccccc1)NC(=O)[C@H](CCC(=O)O)NC(=O)[C@H](C)NC(=O)[C@H](CC(C)C)NC(=O)[C@H](CCCNC(=N)N)NC(=O)[C@H](CCC(N)=O)NC(=O)[C@@H](NC(=O)[C@H](C)NC(=O)[C@@H]1CSSC[C@H](NC(=O)[C@H](CCCCN)NC(=O)CC[C@H](NC(=O)CCCCCCCCCCCCCCCCCCC(=O)O)C(=O)O)C(=O)N[C@@H](CC(N)=O)C(=O)N[C@@H]([C@@H](C)O)C(=O)N[C@@H](C)C(=O)N[C@@H]([C@@H](C)O)C(=O)N1)[C@@H](C)O)C(=O)N1CCC[C@H]1C(=O)N[C@@H](CO)C(=O)N[C@@H](CO)C(=O)N[C@H](C(=O)N[C@@H](CC(N)=O)C(=O)N[C@H](C(=O)NCC(=O)N[C@@H](CO)C(=O)N[C@@H](CC(N)=O)C(=O)N[C@H](C(=O)N1CCC[C@H]1C(N)=O)[C@@H](C)O)C(C)C)[C@@H](C)O
notes: Synthetic acylated analogue of human amylin; also called compound 8
B5: N^α1-[(4S)-4-carboxy-4-(19-carboxynonadecanoylamino)butanoyl]-[Asp14,Arg17,Pro21,Pro27,Pro37]-h-amylin (peptide)
peptide: {C20 diacid-γGlu}-KCNTATCATQRLADFLRHSSPNFGAIPSSTNVGSNTP-NH2
modifications: disulfide 2-7
SMILES: CC[C@H](C)[C@H](NC(=O)[C@H](C)NC(=O)CNC(=O)[C@H](Cc1ccccc1)NC(=O)[C@H](CC(N)=O)NC(=O)[C@@H]1CCCN1C(=O)[C@H](CO)NC(=O)[C@H](CO)NC(=O)[C@H](Cc1c[nH]cn1)NC(=O)[C@H](CCCNC(=N)N)NC(=O)[C@H](CC(C)C)NC(=O)[C@H](Cc1ccccc1)NC(=O)[C@H](CC(=O)O)NC(=O)[C@H](C)NC(=O)[C@H](CC(C)C)NC(=O)[C@H](CCCNC(=N)N)NC(=O)[C@H](CCC(N)=O)NC(=O)[C@@H](NC(=O)[C@H](C)NC(=O)[C@@H]1CSSC[C@H](NC(=O)[C@H](CCCCN)NC(=O)CC[C@H](NC(=O)CCCCCCCCCCCCCCCCCCC(=O)O)C(=O)O)C(=O)N[C@@H](CC(N)=O)C(=O)N[C@@H]([C@@H](C)O)C(=O)N[C@@H](C)C(=O)N[C@@H]([C@@H](C)O)C(=O)N1)[C@@H](C)O)C(=O)N1CCC[C@H]1C(=O)N[C@@H](CO)C(=O)N[C@@H](CO)C(=O)N[C@H](C(=O)N[C@@H](CC(N)=O)C(=O)N[C@H](C(=O)NCC(=O)N[C@@H](CO)C(=O)N[C@@H](CC(N)=O)C(=O)N[C@H](C(=O)N1CCC[C@H]1C(N)=O)[C@@H](C)O)C(C)C)[C@@H](C)O
notes: Synthetic acylated analogue of human amylin; also called compound 10

Target: T1, human calcitonin receptor
Test: cell-based or functional assay

Row | Binder | hCTR funct. EC50 (CRE luciferase reporter, BHK cells)
1 | B1 | 285 pM
2 | B2 | 112 pM
3 | B3 | 160 pM
4 | B4 | 87 pM
5 | B5 | 70 pM
